Data as given in patent US10632181B2, “Composition, containing RGD motif-containing peptide or fragment thereof, for treating burns and glaucoma, alleviating skin wrinkles, and promoting hair growth” (HUONS CO., LTD., priority 2014, dated 2020).
Positions of bridges follow the written chain, without caps; N, C: chain ends. No end group written: not given here.

Columns and labels:
[1] = Burn treatment test: body weight and abnormal syndrome; format: in vivo, SD (Sprague-Dawley) rats; conditions: for BODY WEIGHTS: skin
Method: The experiment was carried out with 55 male SD (Sprague-Dawley) rats that were divided into […] groups: 5 rats for normal group (1 group, G1), 9-10 rats for negative control (1 group, G2), 30 rats for experimental group (3 groups, 10 rats in each group, G3, G4, G5), and 9-10 rats for positive control (1 group, G6). In the remaining groups except normal group, burned male SD rats was used for experiment. After SD rats were anesthesized, 2-degree burns, 2 cm in diameter, were induced on the SD rats using an aluminum electric soldering iron.
Test substance HU022 (SEQ ID NO:1) (G3, G4, G5), normal saline solution (G2) and Fiblast (G6) were applied to the skin of the burned male SD rats repeatedly once a day seven times a week for 7 days. Fiblast was applied to control group (G6) in 10 μg/dose/head, and the experimental group was divided into 3 groups and test substance was applied to each group in 3.3 μg/dose/head (G3), 10 μg/dose/head (G4), and 30 μg/dose/head (G5).
With the measurement results, parametric comparison determined significance via Student's t-test and One-Way ANOVA, and significance testing relative to negative control was conducted. Furthermore, with the histopathology test results of burns, Kruskal-Wallis' H-test was conducted, and when significance between groups was identified, comparison between groups was performed through Mann-Whitney U-test. The computation program for statistics was SPSS 10.1 K. P<0.05 was determined to be statistically significant.

[2] = Hair growth test: body weight; format: in vivo; conditions: skin
Method: (§1) This test was conducted to assess the influence on hair growth of C57BL/6 mouse when 4 types of test substances, HU024 (SEQ ID NO:2), HU025 (SEQ ID NO:3), HU026 (SEQ ID NO:4), and HU027 (SEQ ID NO:5), were applied to the skin for 14 days.
(§2) The group design was set to negative control (sterile water for injection G1), test substance HU024 (SEQ ID NO:2) 20 ug/head/day (G2), test substance HU024 (SEQ ID NO:2) 60 ug/head/day (G3), test substance HU025 (SEQ ID NO:3) 20 ug/head/day (G4), test substance HU025 (SEQ ID NO:3) 60 ug/head/day (G5), test substance HU026 (SEQ ID NO:4) 20 ug/head/day (G6), test substance HU026 (SEQ ID NO:4) 60 ug/head/day (G7), test substance HU027 (SEQ ID NO:5) 20 ug/head/day (G8), test substance HU027 (SEQ ID NO:5) 60 ug/head/day (G9) and positive control minoxyl 3% (G10) administered groups. Each group had 10 animals.
(§3) After the animal was put under anesthesia using zoletil (1 mL/kg, i.p), the back of the animal was primarily shaved using a depilator, and Veet depilatory was evenly applied on the back. After about 5 minutes, the applied site was cleaned up using gauze moistened with sterile water for injection. Only animal whose shaved back was scarlet in color was used for group separation. The test substance was applied to the same site daily once per day, 7 times per week for 14 days, and the test substance was evenly applied to the shaved site (on the back) by rubbing with a glass rod about 10 times.
The test item was measurements of dead animal, general syndrome, weight change, hair growing area and hair weight, and comparison with negative control was conducted.
(§4) The measurement results were analyzed using SPSS (ver. 10.1K), Duncan t-test for weight changes was conducted through one-way analysis of variance, hair weight was compared between groups using Student's t-test, and hair growing area was compared between groups through nonparametric multiple comparison procedures Whitney-Mann methods. P<0.05 was determined to be statistically significant.

[3] = test system: hair growth of C57BL/6 mouse; assay: Hair growth test: hair growing area; format: in vivo
Method: as §1, §2, §3
The hair growing area (%) relative to the test substance-applied area was measured and determined, and Image analyzer program (Image Pro Plus ver. 6.3, Cybermetics, USA) was used to measure. […] Imaging was performed together with the measurements on the date when the hair area was measured. On the next day after the end of application, the animals were killed by CO2 gas, and hair on the hair growing area was removed by a depilator and hair weight was measured.
as §4

[4] = test system: glaucoma animal model having microbead-induced elevated intraocular pressure; assay: Glaucoma test: intraocular pressure; format: in vivo, mouse; conditions: 20 ug/ml applied to eye once daily
Method: For control drug, Taflotan eye drops (Santen Pharmaceutical Co., Ltd.) were used, and for test drug, Taflotan eye drops+HU024 (SEQ ID NO:2) (sample 1), HU024 (SEQ ID NO:2) (sample 2), HU025 (SEQ ID NO:3) (sample 3), HU026 (SEQ ID NO:4) (sample 4), and HU027 (SEQ ID NO:5) (sample 5) were used, and testing was performed on glaucoma animal model having microbead-induced elevated intraocular pressure. In experimental animal model, Rompun solution for injection and zoletil were mixed and used to put the experimental animal under anesthesia, topical anesthetic Alcaine was applied to eye, 1×106 microbead/mL 1 μL was injected into anterior chamber using micro glass needle to induce an increase in intraocular pressure for 2 weeks (IOVS 2011 Vol. 52 36-).
The control drug and 5 samples were provided to the experimental animal having the elevated intraocular pressure for 2 weeks, 5 samples were applied to eye once daily, comparative verification of efficacy was performed, and intraocular pressure reduction and optic nerve cell in the retina was observed through administration for 4 weeks.
The intraocular pressure was measured using a contact-type intraocular pressure meter Tono lab's tonometer TV02 model. […] In 5-7 days after fluorescent probe injection, the eye was enucleated and fixed in 4% paraformaldehyde at room temperature for 4 hours. The retina was separated from choroid of the fixed eye and mounted on a slide. In each experimental group slide, optic nerve cell expressing fluorescence was detected using fluorescence microscope, images were taken at a magnification of ×40 and ×200, and data was collected.

For “HU022: polypeptide consisting of 452nd-509th amino acids of ADAM 15 (GenBank AAH14566.1), 58 amino acids; commercial product (EYEGENE Inc.)”, the “BODY WEIGHTS” value ([1]; 3.3 μg/head/day, Day 1) was 261.24 ± 10.05 g, the “BODY WEIGHTS” value ([1]; 3.3 μg/head/day, Day 8) was 269.41 ± 17.57 g and the “BODY WEIGHTS” value ([1]; 3.3 μg/head/day, Day 15) was 300.31 ± 20.36 g. For the same substance, the “BODY WEIGHTS” value ([1]; 10 μg/head/day, Day 1) was 260.59 ± 9.27 g, the “BODY WEIGHTS” value ([1]; 10 μg/head/day, Day 8) was 267.86 ± 5.20 g and the “BODY WEIGHTS” value ([1]; 10 μg/head/day, Day 15) was 296.55 ± 8.86 g. For the same substance, the “BODY WEIGHTS” value ([1]; 30 μg/head/day, Day 1) was 257.94 ± 9.23 g, the “BODY WEIGHTS” value ([1]; 30 μg/head/day, Day 8) was 259.49 ± 15.34 g and the “BODY WEIGHTS” value ([1]; 30 μg/head/day, Day 15) was 284.87 ± 17.06 g. For the same substance, the “abnormal syndrome after application” value ([1]; burned male SD rats, skin application) was “any abnormal syndrome was not observed”.
In the case of “HU024 (RPTRGDCDLPEFCPG; disulfide 7-13; listed as Homo sapiens)”, the “BODY WEIGHTS” value ([2]; 20 ug/head/day, Day 1) is reported as 21.34 ± 0.60 g, the “BODY WEIGHTS” value ([2]; 20 ug/head/day, Day 7) is reported as 22.64 ± 0.76 g and the “BODY WEIGHTS” value ([2]; 20 ug/head/day, Day 11) is reported as 24.15 ± 0.86 g. The “BODY WEIGHTS” value ([2]; 60 ug/head/day, Day 1) was 21.54 ± 0.53 g, the “BODY WEIGHTS” value ([2]; 60 ug/head/day, Day 7) was 23.02 ± 0.74 g and the “BODY WEIGHTS” value ([2]; 60 ug/head/day, Day 11) was 24.30 ± 1.08 g. For the same substance, the “HAIR AREA (%)” value ([3]; 20 ug/head/day, Day 1) was 0.02 ± 0.01%, the “HAIR AREA (%)” value ([3]; 20 ug/head/day, Day 4) was 0.06 ± 0.04% and the “HAIR AREA (%)” value ([3]; 20 ug/head/day, Day 7) was 0.44 ± 0.19%. For the same substance, the “HAIR AREA (%)” value ([3]; 20 ug/head/day, Day 10) was 7.55 ± 2.56%, the “HAIR AREA (%)” value ([3]; 20 ug/head/day, Day 14) was 67.34 ± 9.03% and the “HAIR AREA (%)” value ([3]; 60 ug/head/day, Day 1) was 0.04 ± 0.04%. For the same substance, the “HAIR AREA (%)” value ([3]; 60 ug/head/day, Day 4) was 0.00 ± 0.00%, the “HAIR AREA (%)” value ([3]; 60 ug/head/day, Day 7) was 0.85 ± 0.75% and the “HAIR AREA (%)” value ([3]; 60 ug/head/day, Day 10) was 6.56 ± 3.04%. The “HAIR AREA (%)” value ([3]; 60 ug/head/day, Day 14) was 55.69 ± 12.45% and the “intraocular pressure change” value [4] was “A reduction in intraocular pressure was observed”.
